T1: Rabbit PD-L1 (rabbit, UniProt G1SUI3 19-238)
T1 sequence: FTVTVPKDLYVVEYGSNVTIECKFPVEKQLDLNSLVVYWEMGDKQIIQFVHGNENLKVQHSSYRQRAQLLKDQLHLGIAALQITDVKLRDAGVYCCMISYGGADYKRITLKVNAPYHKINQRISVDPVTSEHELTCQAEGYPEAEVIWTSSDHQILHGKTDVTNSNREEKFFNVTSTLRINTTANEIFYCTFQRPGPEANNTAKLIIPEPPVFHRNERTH


Legend:
[1] = target: T2, human PD-L1-moFc recombinant protein (human); assay: flow cytometry, blocking of PD-L1-moFc binding to CHO-K1-huPD-1 cells
T2 construct: also called free PD-L1
Procedure: The antibodies to be tested were diluted with 3-fold gradient, added at 20 μL/well into the 96-well plate with the antigen added, mixed well, and incubated at room temperature for 15 min. CHO-K1-huPD-1 cells overexpressing human PD-1 were added at 2×10⁴/well into the 96-well plate pre-incubated with antigen-antibody, mixed well, and incubated at room temperature for 15 min. The mixture was centrifuged at 300 g for 5 min, the supernatant was removed, and the cells were washed twice with FACS buffer. Anti-moFc-Alexa 488 (Item No.: 115-545-071, Jackson) secondary antibodies were diluted at 1:300, added, mixed well, and incubated at room temperature for 15 min. The cells were washed three times and measured on instrument for the fluorescence intensity on their surfaces.

[2] = target: T3, recombinant human PD-L1 protein (Item No. 10084-H08H, Sino Biological) (human, UniProt Q9NZQ7 19-238); assay: SPR, Biacore 8K, antibody captured as ligand, PD-L1 analyte, 1:1 model
T3 construct: Bought protein; also called huPD-L1; human PD-L1 antigen
T3 sequence (Q9NZQ7 19-238 limits assumed): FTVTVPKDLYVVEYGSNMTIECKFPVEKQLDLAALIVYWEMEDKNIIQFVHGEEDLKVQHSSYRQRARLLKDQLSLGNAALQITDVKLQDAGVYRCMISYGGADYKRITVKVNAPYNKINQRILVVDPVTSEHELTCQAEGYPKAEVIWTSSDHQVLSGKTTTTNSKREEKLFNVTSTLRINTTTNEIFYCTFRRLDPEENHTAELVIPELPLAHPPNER

Cynomolgus PD-L1 = Cynomolgus PD-L1 (cynomolgus); assay: as above
Rabbit PD-L1 = target: T1, Rabbit PD-L1; assay: as above
[3] = target: T4, human PD-L1 on CHO-K1-huPD-L1 cells (human, UniProt Q9NZQ7 19-290); assay: cell-based or functional assay
T4 sequence (Q9NZQ7 19-290): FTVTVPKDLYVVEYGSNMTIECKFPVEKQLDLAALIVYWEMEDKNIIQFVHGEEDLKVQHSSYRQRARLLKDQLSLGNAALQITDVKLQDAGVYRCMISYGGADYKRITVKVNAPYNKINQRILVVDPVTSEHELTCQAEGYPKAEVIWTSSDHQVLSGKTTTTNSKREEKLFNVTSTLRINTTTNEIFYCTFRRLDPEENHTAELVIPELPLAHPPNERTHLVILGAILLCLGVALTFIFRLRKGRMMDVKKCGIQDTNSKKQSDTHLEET

[4] = target: T4, human PD-L1 on CHO-K1-huPD-L1 cells; assay: flow cytometry on CHO-K1-huPD-L1 cells; humanized antibody 900760
Procedure: CHO-K1-huPD-L1 cells overexpressing human PD-L1 were plated in a 96-well plate at 2×10⁴/well, and the 3-fold serial gradient dilutions of the samples to be tested were added at 20 μl/well, and co-incubated with the cells at room temperature for 30 min. The cells were washed by centrifugation to remove unbound antibodies, and 20 μl of R-Phycoerythrin AffiniPure Goat Anti-Human IgG, Fcγ Fragment Specific (Item No.: 109-115-098, Jackson ImmunoResearch; diluted with 1% (w/v) BSA-PBS at 1:200) fluorescent secondary antibodies were added to each well, and incubated for 15 min. The cells were then washed twice, resuspended in 100 μl of 1% (w/v) BSA-PBS, and detected for their fluorescence intensity at 585 nm by flow cytometry (BD, FACS Cantoll) under 488 nm excitation.

[5] = target: T3, recombinant human PD-L1 protein (Item …); assay: SPR, humanization screening
[6] = target: T3, recombinant human PD-L1 protein (Item …); assay: ELISA, humanization screening

T2 sequence (chain, as listed by the source limits assumed): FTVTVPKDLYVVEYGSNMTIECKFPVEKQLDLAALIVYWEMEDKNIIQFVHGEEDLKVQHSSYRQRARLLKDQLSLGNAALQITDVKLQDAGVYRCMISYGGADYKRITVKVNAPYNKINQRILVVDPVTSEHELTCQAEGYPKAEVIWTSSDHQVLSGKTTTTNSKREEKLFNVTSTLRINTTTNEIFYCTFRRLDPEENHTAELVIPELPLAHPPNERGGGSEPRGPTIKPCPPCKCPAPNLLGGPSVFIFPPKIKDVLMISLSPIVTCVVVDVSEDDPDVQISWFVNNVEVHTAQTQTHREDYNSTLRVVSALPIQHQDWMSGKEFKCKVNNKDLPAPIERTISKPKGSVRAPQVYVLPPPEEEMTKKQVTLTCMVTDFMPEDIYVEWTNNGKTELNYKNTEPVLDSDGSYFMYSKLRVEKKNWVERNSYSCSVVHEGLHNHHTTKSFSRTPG

| Kd [5] [nM] | EC50 [6] [µg/mL] | Binder | other results |
| --- | --- | --- | --- |
|  |  | humanized anti-PD-L1 antibody No. 900760 (antibody, V domains shown) VH: QVQLVQSGAEVKKPGASVKVSCKASGYTFTDYYINWVRQAPGQRLEWIGWIYLGSGNAKYSQKFQGRVTITVDTSASTAYMELSSLRSEDTAVYYCARSVGTYWYFDVWGQGTTVTVSS VL: QIQLTQSPSSLSASVGDRVTMTCSASSSVSYMHWYQQKPGKAPKPWIYDTSNVASGFPARFSGSGSGTDYTLTISSMQPEDFATYYCHQRSSYPWTFGQGTKLEIK | IC50 [1]: 2.27 µg/mL; Kd [2]: 0.459 nM; koff [2]: 0.000158 s⁻¹; kon [2]: 345000 M⁻¹ s⁻¹; Kd (Cynomolgus PD-L1): 0.695 nM; koff (Cynomolgus PD-L1): 0.000138 s⁻¹; kon (Cynomolgus PD-L1): 198000 M⁻¹ s⁻¹; Kd (Rabbit PD-L1): 14 nM; koff (Rabbit PD-L1): 0.00235 s⁻¹; kon (Rabbit PD-L1): 167000 M⁻¹ s⁻¹; EC50, T cell activation (NFAT-luciferase RLU, Jurkat-NFAT-PD-1-5B8 effector cells with CHO-K1-OS8-PD-L1-8D6 target cells) [3]: 0.416 µg/mL; EC50 [4]: 0.075 µg/mL |
| 0.816 | 0.514 | 900245Ab-H2L2 (antibody, human IgG1, kappa, L234A L235A, V domains shown, Humanized; huVH2 + huVL2 on human IgG1 / Ig kappa constants) VH: QIQLVQSGAEVKKPGASVKVSCKASGYTFTDYYINWVRQAPGQRLEWIGWIYLGSGNAKYNEKFKGRATLTVDTSASTAYMELSSLRSEDTAVYYCARCVGTYWYFDVWGQGTTVTVSS VL: DIQLTQSPSSLSASVGDRVTITCSASSSVSYMHWYQQKPGKAPKPWIYDTSNVQSGFPSRFSGSGSGTDYTLTISSLQPEDFATYYCHQRSSYPWTFGQGTKLEIKR |  |
| 0.645 | 0.502 | 900245Ab-H5L1 (antibody, human IgG1, kappa, L234A L235A, V domains shown, Humanized; huVH5 + huVL1 on human IgG1 / Ig kappa constants, screening batch from ExpiCHO-s cells; also called CoAD1445) VH: QVQLVQSGAEVKKPGASVKVSCKASGYTFTDYYINWVRQAPGQRLEWIGWIYLGSGNAKYSQKFQGRVTITVDTSASTAYMELSSLRSEDTAVYYCARSVGTYWYFDVWGQGTTVTVSS VL: QIQLTQSPSSLSASVGDRVTMTCSASSSVSYMHWYQQKPGKAPKPWIYDTSNVASGFPARFSGSGSGTDYTLTISSMQPEDFATYYCHQRSSYPWTFGQGTKLEIKR |  |
| 1.97 | 1.31 | 900245Ab-H4L2 (antibody, human IgG1, kappa, L234A L235A, V domains shown, Humanized; huVH4 + huVL2 on human IgG1 / Ig kappa constants) VH: QVQLVQSGAEVKKPGASVKVSCKASGYTFTDYYINWVRQAPGQRLEWIGWIYLGSGNAKYNEKFKGRVTITVDTSASTAYMELSSLRSEDTAVYYCARSVGTYWYFDVWGQGTTVTVSS VL: DIQLTQSPSSLSASVGDRVTITCSASSSVSYMHWYQQKPGKAPKPWIYDTSNVQSGFPSRFSGSGSGTDYTLTISSLQPEDFATYYCHQRSSYPWTFGQGTKLEIKR |  |
| 10.4 | 8.7 | 900245Ab-H3L3 (antibody, human IgG1, kappa, L234A L235A, V domains shown, Humanized; huVH3 + huVL3 on human IgG1 / Ig kappa constants) VH: QIQLVQSGAEVKKPGASVKVSCKASGYTFTDYYINWVRQAPGQRLEWIGWIYLGSGNAKYSQKFQGRATLTVDTSASTAYMELSSLRSEDTAVYYCARCVGTYWYFDVWGQGTTVTVSS VL: DIQLTQSPSSLSASVGDRVTITCSASSSVSYMHWYQQKPGKAPKLLIYDTSSLQSGVPSRFSGSGSGTDYTLTISSLQPEDFATYYCHQRSSYPWTFGQGTKLEIKR |  |
| 30.9 | ~1410 | 900245Ab-H5L3 (antibody, human IgG1, kappa, L234A L235A, V domains shown, Humanized; huVH5 + huVL3 on human IgG1 / Ig kappa constants) VH: QVQLVQSGAEVKKPGASVKVSCKASGYTFTDYYINWVRQAPGQRLEWIGWIYLGSGNAKYSQKFQGRVTITVDTSASTAYMELSSLRSEDTAVYYCARSVGTYWYFDVWGQGTTVTVSS VL: DIQLTQSPSSLSASVGDRVTITCSASSSVSYMHWYQQKPGKAPKLLIYDTSSLQSGVPSRFSGSGSGTDYTLTISSLQPEDFATYYCHQRSSYPWTFGQGTKLEIKR |  |
| 1.67 | 0.991 | 900245Ab-H5L2 (antibody, human IgG1, kappa, L234A L235A, V domains shown, Humanized; huVH5 + huVL2 on human IgG1 / Ig kappa constants) VH: QVQLVQSGAEVKKPGASVKVSCKASGYTFTDYYINWVRQAPGQRLEWIGWIYLGSGNAKYSQKFQGRVTITVDTSASTAYMELSSLRSEDTAVYYCARSVGTYWYFDVWGQGTTVTVSS VL: DIQLTQSPSSLSASVGDRVTITCSASSSVSYMHWYQQKPGKAPKPWIYDTSNVQSGFPSRFSGSGSGTDYTLTISSLQPEDFATYYCHQRSSYPWTFGQGTKLEIKR |  |
| 0.726 | 0.589 | 900245Ab-H4L1 (antibody, human IgG1, kappa, L234A L235A, V domains shown, Humanized; huVH4 + huVL1 on human IgG1 / Ig kappa constants) VH: QVQLVQSGAEVKKPGASVKVSCKASGYTFTDYYINWVRQAPGQRLEWIGWIYLGSGNAKYNEKFKGRVTITVDTSASTAYMELSSLRSEDTAVYYCARSVGTYWYFDVWGQGTTVTVSS VL: QIQLTQSPSSLSASVGDRVTMTCSASSSVSYMHWYQQKPGKAPKPWIYDTSNVASGFPARFSGSGSGTDYTLTISSMQPEDFATYYCHQRSSYPWTFGQGTKLEIKR |  |
| 0.576 | 0.381 | 900245Ab-H3L1 (antibody, human IgG1, kappa, L234A L235A, V domains shown, Humanized; huVH3 + huVL1 on human IgG1 / Ig kappa constants) VH: QIQLVQSGAEVKKPGASVKVSCKASGYTFTDYYINWVRQAPGQRLEWIGWIYLGSGNAKYSQKFQGRATLTVDTSASTAYMELSSLRSEDTAVYYCARCVGTYWYFDVWGQGTTVTVSS VL: QIQLTQSPSSLSASVGDRVTMTCSASSSVSYMHWYQQKPGKAPKPWIYDTSNVASGFPARFSGSGSGTDYTLTISSMQPEDFATYYCHQRSSYPWTFGQGTKLEIKR |  |
| 0.764 | 0.787 | 900245Ab-H3L2 (antibody, human IgG1, kappa, L234A L235A, V domains shown, Humanized; huVH3 + huVL2 on human IgG1 / Ig kappa constants) VH: QIQLVQSGAEVKKPGASVKVSCKASGYTFTDYYINWVRQAPGQRLEWIGWIYLGSGNAKYSQKFQGRATLTVDTSASTAYMELSSLRSEDTAVYYCARCVGTYWYFDVWGQGTTVTVSS VL: DIQLTQSPSSLSASVGDRVTITCSASSSVSYMHWYQQKPGKAPKPWIYDTSNVQSGFPSRFSGSGSGTDYTLTISSLQPEDFATYYCHQRSSYPWTFGQGTKLEIKR |  |
| 43.7 | ~1520 | 900245Ab-H4L3 (antibody, human IgG1, kappa, L234A L235A, V domains shown, Humanized; huVH4 + huVL3 on human IgG1 / Ig kappa constants) VH: QVQLVQSGAEVKKPGASVKVSCKASGYTFTDYYINWVRQAPGQRLEWIGWIYLGSGNAKYNEKFKGRVTITVDTSASTAYMELSSLRSEDTAVYYCARSVGTYWYFDVWGQGTTVTVSS VL: DIQLTQSPSSLSASVGDRVTITCSASSSVSYMHWYQQKPGKAPKLLIYDTSSLQSGVPSRFSGSGSGTDYTLTISSLQPEDFATYYCHQRSSYPWTFGQGTKLEIKR |  |
| 0.596 | 0.361 | 900245Ab-H1L1 (antibody, human IgG1, kappa, L234A L235A, V domains shown, Humanized) VH: QIQLVQSGAEVKKPGASVKISCKASGYTFTDYYINWVRQAPGQRLEWIGWIYLGSGNAKYNEKFKGKATLTVDTSASTAYMELSSLRSEDTAVYFCARCVGTYWYFDVWGQGTTVTVSS VL: QIQLTQSPSSLSASVGDRVTMTCSASSSVSYMHWYQQKPGKAPKPWIYDTSNVASGFPARFSGSGSGTDYTLTISSMQPEDFATYYCHQRSSYPWTFGQGTKLEIKR |  |
| 0.639 | 0.385 | 900245Ab-H2L1 (antibody, human IgG1, kappa, L234A L235A, V domains shown, Humanized; huVH2 + huVL1 on human IgG1 / Ig kappa constants) VH: QIQLVQSGAEVKKPGASVKVSCKASGYTFTDYYINWVRQAPGQRLEWIGWIYLGSGNAKYNEKFKGRATLTVDTSASTAYMELSSLRSEDTAVYYCARCVGTYWYFDVWGQGTTVTVSS VL: QIQLTQSPSSLSASVGDRVTMTCSASSSVSYMHWYQQKPGKAPKPWIYDTSNVASGFPARFSGSGSGTDYTLTISSMQPEDFATYYCHQRSSYPWTFGQGTKLEIKR |  |
